Molecular target: T1, TNFR1 (Homo sapiens, UniProt P19438)
T1 chain: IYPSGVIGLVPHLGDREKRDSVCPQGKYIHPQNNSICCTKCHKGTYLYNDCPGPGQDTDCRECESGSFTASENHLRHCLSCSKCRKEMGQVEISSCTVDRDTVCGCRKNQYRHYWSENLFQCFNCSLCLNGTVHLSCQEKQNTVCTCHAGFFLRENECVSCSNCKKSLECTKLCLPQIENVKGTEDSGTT
Experiment: yeast display SC50

B1: A67Y (designed binder)
chain: SMEEEVEKAAKEYEKKKKEAIEKHLEKLKAKDKEAAERFLKELEEAAKEYAKDEAKTMSEEEAKRRYKKYKEKVLLSELSEEEQKEIKEAEEKLVRTILKYVEEAAK
Q: With B1 as the binder, how does the “apparent Kd (screen)” value read?
A: Its value is 22.2 nM.

B2: A51P (designed binder)
chain: SMEEEVEKAAKEYEKKKKEAIEKHLEKLKAKDKEAAERFLKELEEAAKEYPKDEAKTMSEEEAKRRAKKYKEKVLLSELSEEEQKEIKEAEEKLVRTILKYVEEAAK
Q: For B2, which “apparent Kd (screen)” value is on record?
A: Its value is 6.43 nM.

B3: A55V (designed binder)
chain: SMEEEVEKAAKEYEKKKKEAIEKHLEKLKAKDKEAAERFLKELEEAAKEYAKDEVKTMSEEEAKRRAKKYKEKVLLSELSEEEQKEIKEAEEKLVRTILKYVEEAAK
Q: B3 was tested. Which “apparent Kd (screen)” value did it give?
A: The value was 3 nM.

B4: T97K (designed binder)
chain: SMEEEVEKAAKEYEKKKKEAIEKHLEKLKAKDKEAAERFLKELEEAAKEYAKDEAKTMSEEEAKRRAKKYKEKVLLSELSEEEQKEIKEAEEKLVRKILKYVEEAAK
Q: How did the “apparent Kd (screen)” value turn out when B4 was run?
A: Its value is 0.539 nM.

B5: E91I (designed binder)
chain: SMEEEVEKAAKEYEKKKKEAIEKHLEKLKAKDKEAAERFLKELEEAAKEYAKDEAKTMSEEEAKRRAKKYKEKVLLSELSEEEQKEIKEAIEKLVRTILKYVEEAAK
Q: How did the “apparent Kd (screen)” value turn out when B5 was run?
A: Its value is 7.78 nM.

B6: K100M (designed binder)
chain: SMEEEVEKAAKEYEKKKKEAIEKHLEKLKAKDKEAAERFLKELEEAAKEYAKDEAKTMSEEEAKRRAKKYKEKVLLSELSEEEQKEIKEAEEKLVRTILMYVEEAAK
Q: B6 was tested. Which “apparent Kd (screen)” value did it give?
A: Its value is 1.05 nM.

B7: E61I (designed binder)
chain: SMEEEVEKAAKEYEKKKKEAIEKHLEKLKAKDKEAAERFLKELEEAAKEYAKDEAKTMSEIEAKRRAKKYKEKVLLSELSEEEQKEIKEAEEKLVRTILKYVEEAAK
Q: Which “apparent Kd (screen)” value does the source give for B7 here?
A: Its value is 1.54 nM.

B8: E78R (designed binder)
chain: SMEEEVEKAAKEYEKKKKEAIEKHLEKLKAKDKEAAERFLKELEEAAKEYAKDEAKTMSEEEAKRRAKKYKEKVLLSRLSEEEQKEIKEAEEKLVRTILKYVEEAAK
Q: With B8 as the binder, how does the “apparent Kd (screen)” value read?
A: The value was 1.86 nM.

B9: E22N (designed binder)
chain: SMEEEVEKAAKEYEKKKKEAINKHLEKLKAKDKEAAERFLKELEEAAKEYAKDEAKTMSEEEAKRRAKKYKEKVLLSELSEEEQKEIKEAEEKLVRTILKYVEEAAK
Q: For B9, which “apparent Kd (screen)” value is on record?
A: Its value is 0.869 nM.

B10: K68G (designed binder)
chain: SMEEEVEKAAKEYEKKKKEAIEKHLEKLKAKDKEAAERFLKELEEAAKEYAKDEAKTMSEEEAKRRAGKYKEKVLLSELSEEEQKEIKEAEEKLVRTILKYVEEAAK
Q: How did the “apparent Kd (screen)” value turn out when B10 was run?
A: Its value is 1.27 nM.

B11: E34A (designed binder)
chain: SMEEEVEKAAKEYEKKKKEAIEKHLEKLKAKDKAAAERFLKELEEAAKEYAKDEAKTMSEEEAKRRAKKYKEKVLLSELSEEEQKEIKEAEEKLVRTILKYVEEAAK
Q: Which “apparent Kd (screen)” value does the source give for B11 here?
A: The value was 1.05 nM.

B12: K48D (designed binder)
chain: SMEEEVEKAAKEYEKKKKEAIEKHLEKLKAKDKEAAERFLKELEEAADEYAKDEAKTMSEEEAKRRAKKYKEKVLLSELSEEEQKEIKEAEEKLVRTILKYVEEAAK
Q: B12 was tested. Which “apparent Kd (screen)” value did it give?
A: Its value is 0.49 nM.

B13: Q84L (designed binder)
chain: SMEEEVEKAAKEYEKKKKEAIEKHLEKLKAKDKEAAERFLKELEEAAKEYAKDEAKTMSEEEAKRRAKKYKEKVLLSELSEEELKEIKEAEEKLVRTILKYVEEAAK
Q: B13 was tested. Which “apparent Kd (screen)” value did it give?
A: Its value is 2.48 nM.

B14: A46R (designed binder)
chain: SMEEEVEKAAKEYEKKKKEAIEKHLEKLKAKDKEAAERFLKELEERAKEYAKDEAKTMSEEEAKRRAKKYKEKVLLSELSEEEQKEIKEAEEKLVRTILKYVEEAAK
Q: With B14 as the binder, how does the “apparent Kd (screen)” value read?
A: Its value is 1.54 nM.

B15: E78W (designed binder)
chain: SMEEEVEKAAKEYEKKKKEAIEKHLEKLKAKDKEAAERFLKELEEAAKEYAKDEAKTMSEEEAKRRAKKYKEKVLLSWLSEEEQKEIKEAEEKLVRTILKYVEEAAK
Q: How did the “apparent Kd (screen)” value turn out when B15 was run?
A: Its value is 2.73 nM.

B16: H24A (designed binder)
chain: SMEEEVEKAAKEYEKKKKEAIEKALEKLKAKDKEAAERFLKELEEAAKEYAKDEAKTMSEEEAKRRAKKYKEKVLLSELSEEEQKEIKEAEEKLVRTILKYVEEAAK
Q: With B16 as the binder, how does the “apparent Kd (screen)” value read?
A: Its value is 1.05 nM.

B17: K73W (designed binder)
chain: SMEEEVEKAAKEYEKKKKEAIEKHLEKLKAKDKEAAERFLKELEEAAKEYAKDEAKTMSEEEAKRRAKKYKEWVLLSELSEEEQKEIKEAEEKLVRTILKYVEEAAK
Q: How did the “apparent Kd (screen)” value turn out when B17 was run?
A: The value was 15.2 nM.

B18: E4C (designed binder)
chain: SMECEVEKAAKEYEKKKKEAIEKHLEKLKAKDKEAAERFLKELEEAAKEYAKDEAKTMSEEEAKRRAKKYKEKVLLSELSEEEQKEIKEAEEKLVRTILKYVEEAAK
Q: Which “apparent Kd (screen)” value does the source give for B18 here?
A: Its value is 1.27 nM.

B19: Y70P (designed binder)
chain: SMEEEVEKAAKEYEKKKKEAIEKHLEKLKAKDKEAAERFLKELEEAAKEYAKDEAKTMSEEEAKRRAKKPKEKVLLSELSEEEQKEIKEAEEKLVRTILKYVEEAAK
Q: With B19 as the binder, how does the “apparent Kd (screen)” value read?
A: Its value is 5.31 nM.

B20: K88Q (designed binder)
chain: SMEEEVEKAAKEYEKKKKEAIEKHLEKLKAKDKEAAERFLKELEEAAKEYAKDEAKTMSEEEAKRRAKKYKEKVLLSELSEEEQKEIQEAEEKLVRTILKYVEEAAK
Q: B20 was tested. Which “apparent Kd (screen)” value did it give?
A: The value was 0.49 nM.

B21: E4K (designed binder)
chain: SMEKEVEKAAKEYEKKKKEAIEKHLEKLKAKDKEAAERFLKELEEAAKEYAKDEAKTMSEEEAKRRAKKYKEKVLLSELSEEEQKEIKEAEEKLVRTILKYVEEAAK
Q: With B21 as the binder, how does the “apparent Kd (screen)” value read?
A: Its value is 1.86 nM.

B22: E89H (designed binder)
chain: SMEEEVEKAAKEYEKKKKEAIEKHLEKLKAKDKEAAERFLKELEEAAKEYAKDEAKTMSEEEAKRRAKKYKEKVLLSELSEEEQKEIKHAEEKLVRTILKYVEEAAK
Q: For B22, which “apparent Kd (screen)” value is on record?
A: The value was 1.69 nM.

B23: E62G (designed binder)
chain: SMEEEVEKAAKEYEKKKKEAIEKHLEKLKAKDKEAAERFLKELEEAAKEYAKDEAKTMSEEGAKRRAKKYKEKVLLSELSEEEQKEIKEAEEKLVRTILKYVEEAAK
Q: How did the “apparent Kd (screen)” value turn out when B23 was run?
A: Its value is 2.25 nM.

B24: E19V (designed binder)
chain: SMEEEVEKAAKEYEKKKKVAIEKHLEKLKAKDKEAAERFLKELEEAAKEYAKDEAKTMSEEEAKRRAKKYKEKVLLSELSEEEQKEIKEAEEKLVRTILKYVEEAAK
Q: B24 was tested. Which “apparent Kd (screen)” value did it give?
A: The value was 0.446 nM.

B25: A46V (designed binder)
chain: SMEEEVEKAAKEYEKKKKEAIEKHLEKLKAKDKEAAERFLKELEEVAKEYAKDEAKTMSEEEAKRRAKKYKEKVLLSELSEEEQKEIKEAEEKLVRTILKYVEEAAK
Q: For B25, which “apparent Kd (screen)” value is on record?
A: The value was 2.48 nM.

B26: Y101D (designed binder)
chain: SMEEEVEKAAKEYEKKKKEAIEKHLEKLKAKDKEAAERFLKELEEAAKEYAKDEAKTMSEEEAKRRAKKYKEKVLLSELSEEEQKEIKEAEEKLVRTILKDVEEAAK
Q: How did the “apparent Kd (screen)” value turn out when B26 was run?
A: Its value is 0.446 nM.

B27: K41V (designed binder)
chain: SMEEEVEKAAKEYEKKKKEAIEKHLEKLKAKDKEAAERFLVELEEAAKEYAKDEAKTMSEEEAKRRAKKYKEKVLLSELSEEEQKEIKEAEEKLVRTILKYVEEAAK
Q: B27 was tested. Which “apparent Kd (screen)” value did it give?
A: Its value is 0.446 nM.

B28: K71Y (designed binder)
chain: SMEEEVEKAAKEYEKKKKEAIEKHLEKLKAKDKEAAERFLKELEEAAKEYAKDEAKTMSEEEAKRRAKKYYEKVLLSELSEEEQKEIKEAEEKLVRTILKYVEEAAK
Q: Which “apparent Kd (screen)” value does the source give for B28 here?
A: Its value is 1.05 nM.

B29: D53V (designed binder)
chain: SMEEEVEKAAKEYEKKKKEAIEKHLEKLKAKDKEAAERFLKELEEAAKEYAKVEAKTMSEEEAKRRAKKYKEKVLLSELSEEEQKEIKEAEEKLVRTILKYVEEAAK
Q: Which “apparent Kd (screen)” value does the source give for B29 here?
A: Its value is 12.5 nM.

B30: E61F (designed binder)
chain: SMEEEVEKAAKEYEKKKKEAIEKHLEKLKAKDKEAAERFLKELEEAAKEYAKDEAKTMSEFEAKRRAKKYKEKVLLSELSEEEQKEIKEAEEKLVRTILKYVEEAAK
Q: How did the “apparent Kd (screen)” value turn out when B30 was run?
A: Its value is 0.718 nM.

B31: S77W (designed binder)
chain: SMEEEVEKAAKEYEKKKKEAIEKHLEKLKAKDKEAAERFLKELEEAAKEYAKDEAKTMSEEEAKRRAKKYKEKVLLWELSEEEQKEIKEAEEKLVRTILKYVEEAAK
Q: For B31, which “apparent Kd (screen)” value is on record?
A: The value was 1.05 nM.

B32: K88V (designed binder)
chain: SMEEEVEKAAKEYEKKKKEAIEKHLEKLKAKDKEAAERFLKELEEAAKEYAKDEAKTMSEEEAKRRAKKYKEKVLLSELSEEEQKEIVEAEEKLVRTILKYVEEAAK
Q: B32 was tested. Which “apparent Kd (screen)” value did it give?
A: The value was 0.79 nM.

B33: R66E (designed binder)
chain: SMEEEVEKAAKEYEKKKKEAIEKHLEKLKAKDKEAAERFLKELEEAAKEYAKDEAKTMSEEEAKREAKKYKEKVLLSELSEEEQKEIKEAEEKLVRTILKYVEEAAK
Q: How did the “apparent Kd (screen)” value turn out when B33 was run?
A: Its value is 18.3 nM.

B34: E83T (designed binder)
chain: SMEEEVEKAAKEYEKKKKEAIEKHLEKLKAKDKEAAERFLKELEEAAKEYAKDEAKTMSEEEAKRRAKKYKEKVLLSELSEETQKEIKEAEEKLVRTILKYVEEAAK
Q: How did the “apparent Kd (screen)” value turn out when B34 was run?
A: Its value is 0.49 nM.

B35: E22M (designed binder)
chain: SMEEEVEKAAKEYEKKKKEAIMKHLEKLKAKDKEAAERFLKELEEAAKEYAKDEAKTMSEEEAKRRAKKYKEKVLLSELSEEEQKEIKEAEEKLVRTILKYVEEAAK
Q: For B35, which “apparent Kd (screen)” value is on record?
A: Its value is 0.539 nM.

From paper PMC12416549 (2024)
